From US12428627B2, “Mutant p-hydroxyphenylpyruvate dioxygenase, and coding nucleic acid and use thereof” (Qingdao Kingagroot Chemical Compound Co., Ltd., priority 2018, dated 2025)

How the values were obtained:
[1] = tested on: Huaidao No. 5 rice seedlings; experiment: Gene-edited rice seedlings (base editing / homologous replacement of HPPD gene) on medium containing tembotrione; type: in vivo; details: medium containing 0.4 μM tembotrione
Procedure: The calli of Huaidao No. 5 (at least 3000 callis) were infected according to the aforesaid method for infecting rice callis with Agrobacterium. After being infected with Agrobacterium, the infected calli were transferred to a 50 mg/L hyg screening medium for screening culture. After three rounds (15 days×3) of screening, the blond calli with good growth state were picked out to differentiate in a differentiation medium, and 0.2 μM tembotrione was added during the differentiation process for screening. After for 3-4 weeks, about 1,500 seedlings with around 1 cm were obtained. As to the about 1,500 differentiated seedlings, the vast majority of which had been bleached, and only 4 seedlings remained normal green. The 4 seedlings were transplanted to a rooting medium containing 0.4 μM tembotrione and cultivated for 2 weeks, wherein two seedlings had been bleached, while the other two seedlings remained green (FIG. 14A). A small number of leaves were used to extract genomic DNA by CTAB method. PCR was carried out by using the primers oshppd54F: TTCCACCACGTCGAGCTC and Oshppd356R: […]. The amplified product was detected by 1% agarose electrophoresis and sequenced by Sanger sequencing method. […]

[2] = tested on: rice HPPD (OsHPPD); experiment: Color reaction of recombinant E. coli expressing wild-type or mutant rice HPPD, cultured in 96-well plate in medium containing an HPPD-inhibiting herbicide and tyrosine; type: cell-based, Oryza sativa; details: tembotrione and metabolic product of benzuofucaotong, FIG. 1
Excerpt: The rice full-length OsHPPD enzyme has 446 amino acids and its amino acid sequence is set forth in SEQ ID NO: 2, wherein the amino acids 1-50 are considered to constitute a signal peptide which is responsible for directing into chloroplast (Siehl et al. Plant Physiol. 2014 November; 166(3): 1162-1176). Therefore, from the amino acid at the 51-position to the amino acid at the […], a saturated random mutation was made for each amino acid. This was achieved by performing a bridge PCR by using a primer containing a coding sequence of an amino acid to be mutated into NNK and another suitable conventional primer. In NNK, N represented A/T/G/C and K represented G/T, and the NNK codon could encode any one of 20 amino acids or terminators. Accordingly, this was a saturated mutation. Please see: Kille S. Acevedo-Rocha C G, Parra L P, Zhang Z G, Opperman D J, Reetz M T, Acevedo J P (2013) Reducing codon redundancy and screening effort of combinatorial protein libraries created by saturation mutagenesis. ACS Synth Biol 2(2):83-92; Directed Evolution Library Creation: methods and protocols 2nd ed. Edited by Elizabeth M. J. Gillam, Janine N. Copp and David F. Ackerley New York, NY United States: Springer, 2014. doi:10.1007/978-1-4939-1053-3. A large number of mutants would be produced. The mutant was cloned into a linearized pET-44a vector and transformed into E. co/i, which was cultivated by using a 96-well plate in a 2×YT culture solution containing an HPPD-inhibiting herbicide (such as 1-2 μM tembotrione) and a substrate tyrosine (1 g/L) in a shaker at 28° C. and 150 rpm for 24 hours for expression, and then the mutants were rapidly screened out according to their color browning. By using the method, 10 single amino acid mutants, A103S, H141R, H141 K, H141T, A165V, V191I, R220K, G342D, D370N and K410I, were screened out. The color reaction of these resistant mutants in the presence of tembotrione and the metabolic product of benzuofucaotong relative to that of the wild type was as shown in FIG. 1.
Similarly, the color reaction of these mutants in the presence of the other three HPPD-inhibiting herbicides huanbifucaotong, topramezone and mesotrione were determined, see FIGS. 2 and 3. The resistance/tolerance of each of the mutants to the five herbicides was roughly estimated on the basis of color changes thereof and the results were shown in Table 1. The more the plus sign “+”, the deeper the color and the higher the resistance/tolerance as compared to the wild type.
HPPD-inhibiting herbicides inhibited HPPD enzymatic activity. When tyrosine was converted to 4-hydroxyphenylpyruvate (HPP) under the action of tyrosine transaminase, the inactivated HPPD was unable to oxidize 4-hydroxyphenylpyruvate into homogentisic acid (HGA). HGA was dark brown. Therefore, if an HPPD mutant was resistant to or tolerant to an herbicide, after expressed in E. coli, the mutant could also oxidize 4-hydroxyphenylpyruvate into homogentisic acid, whereby dark brown appeared. Therefore, E. coli was cultured in a 2×YT culture medium containing a HPPD-inhibiting herbicide and a substrate tyrosine using a 96-well plate to express HPPD, and these mutants were rapidly screened according to their color changes. • (1) Preparation of 2×YT culture medium (1 g/L L-Tyr, 0.1 mM IPTG, 0.01 mM MnCl2 and 100 mg/L ampicillin were added). • (2) 0.1 mL of the above medium was added to each well of a 96-well plate, and the expression clones of OsHPPD wild type or mutant (OsHPPD Mut) from the E. coli plate obtained by the above transformation were subjected to liquid culture in the 96-well plate. HPPD inhibitors having a final concentration of 1 μM-20 μM were added according to different selected agents, for example, the final concentration of tembotrione was 1.7 μM while mesotrione was 10 μM. […]

B1: H141R: single-site mutant rice HPPD (protein, listed as Oryza sativa)
chain: MPPTPTPTATTGAVSAAAAAGENAGFRLVGHRRFVRANPRSDRFQALAFHHVELWCADAASAAGRFAFALGAPLAARSDLSTGNSAHASLLLRSASVAFLFTAPYGGDHGVGADAATTASIPSFSPGAARRFAADHGLAVRAVALRVADAADAFRASVAAGARPAFQPADLGGGFGLAEVELYGDVVLRFVSHPDGADAPFLPGFEGVSNPGAVDYGLRRFDHVVGNVPELAPVAAYISGFTGFHEFAEFTAEDVGTAESGLNSVVLANNAETVLLPLNEPVHGTKRRSQIQTYLDHHGGPGVQHIALASDDVLGTLREMRARSAMGGFEFLAPPPPNYYDGVRRRAGDVLSEEQINECQELGVLVDRDDQGVLLQIFTKPVGDRPTFFLEMIQRIGCMEKDESGQEYQKGGCGGFGKGNFSELFKSIEEYEKSLEAKQAPTVQGS
modifications: The amino acid sequence of Wild-Type rice HPPD protein (OsHPPD _WT)
- state of successfully edited seedlings [1]: remain green
- color change compared with wild type [2]: obviously deeper than that of the wild type
